Experimental data published in JP2014141434A (dated 2014).
Where a chain is given by its changes, count along the chain named. Each block holds one binder with its values, some of them ahead of it.

How the values were obtained:
[1] = molecular target: T1, N末端FLAG−tag付加型カニクイザルROBO4 cynoROBO4−2 (cynomolgus monkey, UniProt Q8WZ75 28-1007 (human entry)); assay: flow cytometry, transfected HEK293 cells
T1 construct: also called pCI−FLAG−cynoROBO4−2
T1 chain: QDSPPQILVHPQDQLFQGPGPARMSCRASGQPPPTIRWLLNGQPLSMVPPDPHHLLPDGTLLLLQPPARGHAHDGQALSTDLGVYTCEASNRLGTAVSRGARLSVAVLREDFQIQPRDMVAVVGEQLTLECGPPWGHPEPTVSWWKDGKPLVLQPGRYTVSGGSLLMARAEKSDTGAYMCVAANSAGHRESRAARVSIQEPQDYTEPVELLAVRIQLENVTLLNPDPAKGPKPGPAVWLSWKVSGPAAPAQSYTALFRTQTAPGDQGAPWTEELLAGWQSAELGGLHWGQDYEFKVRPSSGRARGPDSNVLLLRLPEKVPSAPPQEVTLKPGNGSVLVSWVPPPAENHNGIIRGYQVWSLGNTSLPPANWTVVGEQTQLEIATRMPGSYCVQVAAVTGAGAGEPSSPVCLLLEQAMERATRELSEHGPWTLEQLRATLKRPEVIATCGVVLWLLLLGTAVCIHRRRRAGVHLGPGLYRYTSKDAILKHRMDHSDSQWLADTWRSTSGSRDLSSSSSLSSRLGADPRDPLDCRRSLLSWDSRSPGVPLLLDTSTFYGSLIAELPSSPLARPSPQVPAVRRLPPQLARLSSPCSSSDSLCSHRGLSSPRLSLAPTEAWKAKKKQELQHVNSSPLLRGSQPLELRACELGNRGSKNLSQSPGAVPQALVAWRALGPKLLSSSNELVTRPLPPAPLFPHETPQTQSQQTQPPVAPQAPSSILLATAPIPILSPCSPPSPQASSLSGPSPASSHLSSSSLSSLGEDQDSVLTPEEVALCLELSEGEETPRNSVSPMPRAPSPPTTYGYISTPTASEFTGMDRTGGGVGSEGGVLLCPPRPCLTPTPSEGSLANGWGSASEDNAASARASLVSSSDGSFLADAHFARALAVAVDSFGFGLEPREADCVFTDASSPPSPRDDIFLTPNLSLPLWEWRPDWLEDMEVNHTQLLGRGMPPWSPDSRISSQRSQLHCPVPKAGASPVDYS

[2] = molecular target: T2, 全長ヒトROBO4 (pCI−hROBO4導入細胞) (human, UniProt Q8WZ75 28-1007); assay: flow cytometry, hybridoma supernatant on hROBO4-transfected HEK293T cells against mock cells
T2 construct: Expressed from pCI-hROBO4 on HEK293 / HEK293T cells; also called human ROBO4
T2 sequence: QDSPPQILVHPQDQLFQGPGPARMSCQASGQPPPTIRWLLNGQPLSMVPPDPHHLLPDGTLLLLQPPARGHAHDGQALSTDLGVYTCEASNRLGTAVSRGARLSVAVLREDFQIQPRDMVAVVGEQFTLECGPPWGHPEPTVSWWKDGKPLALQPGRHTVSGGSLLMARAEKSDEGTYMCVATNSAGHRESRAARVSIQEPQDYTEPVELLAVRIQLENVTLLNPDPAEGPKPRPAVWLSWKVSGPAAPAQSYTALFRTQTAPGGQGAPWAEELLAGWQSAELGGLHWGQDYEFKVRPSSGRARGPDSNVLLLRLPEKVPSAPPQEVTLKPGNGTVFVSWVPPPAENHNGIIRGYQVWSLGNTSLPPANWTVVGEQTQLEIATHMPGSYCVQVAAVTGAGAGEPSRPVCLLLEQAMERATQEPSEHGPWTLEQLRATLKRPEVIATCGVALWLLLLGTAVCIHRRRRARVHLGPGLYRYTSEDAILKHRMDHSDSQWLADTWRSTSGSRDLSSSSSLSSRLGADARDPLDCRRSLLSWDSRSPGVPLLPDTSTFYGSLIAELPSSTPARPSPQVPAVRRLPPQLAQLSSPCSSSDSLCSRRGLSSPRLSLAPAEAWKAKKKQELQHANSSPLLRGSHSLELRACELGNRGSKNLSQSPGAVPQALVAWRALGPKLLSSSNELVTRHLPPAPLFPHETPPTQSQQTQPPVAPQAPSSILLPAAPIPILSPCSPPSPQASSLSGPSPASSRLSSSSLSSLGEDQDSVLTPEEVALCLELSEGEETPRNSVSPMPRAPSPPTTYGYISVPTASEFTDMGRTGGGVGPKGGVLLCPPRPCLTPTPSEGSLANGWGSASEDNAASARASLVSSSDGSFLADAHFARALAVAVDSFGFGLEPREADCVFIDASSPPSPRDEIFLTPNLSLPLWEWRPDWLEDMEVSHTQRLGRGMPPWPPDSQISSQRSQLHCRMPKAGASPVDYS

B1: ヒト化MAb1抗体 H−2143 (antibody, human IgG2, kappa, V domains shown)
VH: EVQLVESGGGLVQPGGSLRLSCAASGFTFSTYAMSWVRQAPGKRLEWVATISQGGTYTYYPDSVKGRFTISRDNAKNTLYLQMNSLRAEDTAVYYCARLIYYDYLDYWGQGTLVTVSS
VL: DIVMTQSPLSLPVTLGEPASISCRSSQSLENENKNLYLNWYLQKPGQSPQLLIYRVSNRFSGVPDRFSGSGSGTDFTLKISRVEAEDVGVYYCLQVTHVPWTFGPGTKVDIKR
notes: Humanised IgG2 / kappa; also called H-2143; hMAb1-H4 / hMAb1-L2
binding result [1]: binds

B2: ヒト化MAb1抗体 H−2140 (antibody, human IgG2, kappa, V domains shown)
VH: B1 VH
VL: B1 VL with E32S, K34G, L36T
notes: Humanised IgG2 / kappa; also called H-2140; hMAb1-H4 / hMAb1-L1
binding result [1]: binds

Next, values leading:

binding result [1]: binds
B3: ヒト化MAb1抗体 H−1143 (antibody, human IgG2, kappa, V domains shown)
VH: B1 VH with R44G
VL: B1 VL
notes: Humanised IgG2 / kappa; also called H-1143; hMAb1-H2 / hMAb1-L2

binding result [2]: binds
B4: 抗ROBO4マウスモノクローナル抗体 MAb1 (antibody, V domains shown)
VH: EVQLVESGGGLVKPGGSLKLSCAASGFTFSTYAMSWVRQTPEKRLEWVATISNGGTYTYYPDSVKGRFTISRDNAENTLYLQMSSLRSEDTAMYFCARLIYYDYLDYWGHGTTLTVSS
VL: DAVMTQTPLSLPVSLGDQASISCRSSQSLENSNGNTYLNWYFQKPGQSPQLLIYRVSNRFSGVLDRFSGSGSGTDFTLKISRVEAEDFGVYFCLQVTHVPWTFGGGTKLEIKR
notes: Mouse IgG1 (gamma 1) / kappa from a hybridoma; The constant regions are not in the listing; also called MAb1
